Test results taken from publication PMC9834230, “The HAPSTR2 retrogene buffers stress signaling and resilience in mammals” (Nature Communications, 2023).

Target: the molecule itself
Assay: SEC; analytical; 500 µg protein on Superdex 200 Increase 10/300 GL in PBS with 1 mM DTT, 0.3 mL/minute, 4 °C; stoichiometry estimated against standards

B1: recombinant maltose-binding protein (MBP)-tagged HAPSTR2 (natural protein, human, UniProt A0A7P0TBJ1 1-273, looked up)
chain: MEEQQKEGEAEVAEHWFSKWERQCLAEAEQEEQLPPELQEEAAAELAGLKSEKQKLWHLFQISATAVAQLYKDSGCQQQGLSMWDPFQNAAMAVTSLYKESGDAHQRSFDLGVQVGHQRRIKDVLEWVKKGRSTIRREDLISFLCGKVPPAPPPPRTPRTPPKPPTGVTSQAVATESSSSVDVDLQPFQEAIALHGLSGAMAGISMRSGDSPQDSGVASSGRRKTSFLEDDLNPFDSEELALHLDSGGIRKRTSAQCSDGITDSPIQKRNRMV
notes: HAPSTR2, human; Vector pDest-HisMBP (Addgene 11085); No cleavage of the tags is described; Homo-oligomer by SEC; also called MBP-HAPSTR2; H2; source: E. coli BL21 (DE3), purified (Ni-NTA, dialysis); not shown: MBP, N-terminal, kept
binding result: binds
